Measured values taken from patent US20260167699A1 (Chugai, published 2026).
Positions count from the first letter of the chain named.

B1: GpH7-A5/GpH7-B3 variant L234_20W/GpL16-k0 (antibody, human IgG1, kappa)
heavy 1: not shown
heavy 2: not shown
light: DIVMTQSPLSLPVTPGEPASISCQASESLVHSNRNTYLHWYLQKPGQSPQLLIYKVSNRFSGVPDRFSGSGSGTDFTLKISRVEAEDVGVYYCSQNTHVPPTFGQGTKVEIERTVAAPSVFIFPPSDEQLKSGTASVVCLLNNFYPREAKVQWKVDNALQSGNSQESVTEQDSKDSTYSLSSTLTLSKADYEKHKVYACEVTHQGLSSPVTKSFNRGEC
B2: GpH7-A5/GpH7-B3 variant P238_10E/GpL16-k0 (antibody, human IgG1, kappa)
heavy 1: not shown
heavy 2: not shown
light: B1 light
B3: GpH7-A5/GpH7-B3 variant L235_05P/GpL16-k0 (antibody, human IgG1, kappa)
heavy 1: not shown
heavy 2: not shown
light: B1 light
B4: GpH7-A5/GpH7-B3 variant L235_03V/GpL16-k0 (antibody, human IgG1, kappa)
heavy 1: not shown
heavy 2: not shown
light: B1 light
B5: GpH7-A5/GpH7-B3 variant P238_15Y/GpL16-k0 (antibody, human IgG1, kappa)
heavy 1: not shown
heavy 2: not shown
light: B1 light
B6: GpH7-A5/GpH7-B3 variant P271_06M/GpL16-k0 (antibody, human IgG1, kappa)
heavy 1: not shown
heavy 2: not shown
light: B1 light
B7: GpH7-A5/GpH7-B3 variant L235_14T/GpL16-k0 (antibody, human IgG1, kappa)
heavy 1: not shown
heavy 2: not shown
light: B1 light
B8: GpH7-A5/GpH7-B3 variant P271_04F/GpL16-k0 (antibody, human IgG1, kappa)
heavy 1: not shown
heavy 2: not shown
light: B1 light
B9: GpH7-A5/GpH7-B3 variant L235_16H/GpL16-k0 (antibody, human IgG1, kappa)
heavy 1: not shown
heavy 2: not shown
light: B1 light
B10: GpH7-A5/GpH7-B3 variant L235_20W/GpL16-k0 (antibody, human IgG1, kappa)
heavy 1: not shown
heavy 2: not shown
light: B1 light
B11: GpH7-A5/GpH7-B3 variant L235_06M/GpL16-k0 (antibody, human IgG1, kappa)
heavy 1: not shown
heavy 2: not shown
light: B1 light
B12: GpH7-A5/GpH7-B3 variant P271_02A/GpL16-k0 (antibody, human IgG1, kappa)
heavy 1: not shown
heavy 2: not shown
light: B1 light
B13: GpH7-A5/GpH7-B3 variant P238_09D/GpL16-k0 (antibody, human IgG1, kappa)
heavy 1: not shown
heavy 2: not shown
light: B1 light
B14: GpH7-A5/GpH7-B3 variant L235_13S/GpL16-k0 (antibody, human IgG1, kappa)
heavy 1: not shown
heavy 2: not shown
light: B1 light
B15: GpH7-A5/GpH7-B3 variant L235_04F/GpL16-k0 (antibody, human IgG1, kappa)
heavy 1: not shown
heavy 2: not shown
light: B1 light
B16: GpH7-A5/GpH7-B3 variant L235_10E/GpL16-k0 (antibody, human IgG1, kappa)
heavy 1: not shown
heavy 2: not shown
light: B1 light
B17: GpH7-A5/GpH7-B3 variant L235_02A/GpL16-k0 (antibody, human IgG1, kappa)
heavy 1: not shown
heavy 2: not shown
light: B1 light
B18: GpH7-A5/GpH7-B3 variant L235_18N/GpL16-k0 (antibody, human IgG1, kappa)
heavy 1: not shown
heavy 2: not shown
light: B1 light
B19: GpH7-A5/GpH7-B3 variant L235_15Y/GpL16-k0 (antibody, human IgG1, kappa)
heavy 1: not shown
heavy 2: not shown
light: B1 light
B20: GpH7-A5/GpH7-B3 variant P238_08L/GpL16-k0 (antibody, human IgG1, kappa)
heavy 1: not shown
heavy 2: not shown
light: B1 light
B21: GpH7-A5/GpH7-B3 variant L235_09D/GpL16-k0 (antibody, human IgG1, kappa)
heavy 1: not shown
heavy 2: not shown
light: B1 light
B22: GpH7-A5/GpH7-B3 variant L235_07I/GpL16-k0 (antibody, human IgG1, kappa)
heavy 1: not shown
heavy 2: not shown
light: B1 light
B23: GpH7-A5/GpH7-B3 variant P271_01G/GpL16-k0 (antibody, human IgG1, kappa)
heavy 1: not shown
heavy 2: not shown
light: B1 light
B24: GpH7-A5/GpH7-B3 variant P271_03V/GpL16-k0 (antibody, human IgG1, kappa)
heavy 1: not shown
heavy 2: not shown
light: B1 light
B25: GpH7-A5/GpH7-B3 variant P238_19Q/GpL16-k0 (antibody, human IgG1, kappa)
heavy 1: not shown
heavy 2: not shown
light: B1 light

The binders below were run against T1, FcγRIa extracellular domain, His-tagged (human, UniProt P12314 16-292) (assay: SPR, vs GpH7-A5/GpH7-B3/GpL16-k0 =100).
T1 construct: extracellular domain; also called 1a
T1 sequence (P12314 other isoform, or with tags, fused parts or gaps): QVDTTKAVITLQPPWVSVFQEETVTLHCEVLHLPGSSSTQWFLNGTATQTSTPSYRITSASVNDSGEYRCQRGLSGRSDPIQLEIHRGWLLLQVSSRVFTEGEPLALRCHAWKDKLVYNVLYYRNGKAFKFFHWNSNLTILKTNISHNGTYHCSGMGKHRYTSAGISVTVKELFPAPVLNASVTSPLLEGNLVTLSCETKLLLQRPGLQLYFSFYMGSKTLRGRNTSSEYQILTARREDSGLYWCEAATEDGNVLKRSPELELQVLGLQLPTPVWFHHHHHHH

| Binder | He/Con 1a |
| --- | --- |
| B1 | 102 % of control |
| B2 | 105 % of control |
| B3 | 97.8 % of control |
| B4 | 97.8 % of control |
| B5 | 104 % of control |
| B6 | 101 % of control |
| B7 | 91.6 % of control |
| B8 | 100 % of control |
| B9 | 92.7 % of control |
| B10 | 95.9 % of control |
| B11 | 101 % of control |
| B12 | 102 % of control |
| B13 | 99 % of control |
| B14 | 93.5 % of control |
| B15 | 100 % of control |
| B16 | 96.9 % of control |
| B17 | 95.2 % of control |
| B18 | 95.2 % of control |
| B19 | 100 % of control |
| B20 | 104 % of control |
| B21 | 87.6 % of control |
| B22 | 103 % of control |
| B23 | 103 % of control |
| B24 | 101 % of control |
| B25 | 101 % of control |

The binders below were run against T2, FcγRIIa(H) extracellular domain, His-tagged (human, UniProt P12318 34-217) (assay: SPR, vs GpH7-A5/GpH7-B3/GpL16-k0 =100).
T2 construct: extracellular domain; also called 2aH
T2 sequence: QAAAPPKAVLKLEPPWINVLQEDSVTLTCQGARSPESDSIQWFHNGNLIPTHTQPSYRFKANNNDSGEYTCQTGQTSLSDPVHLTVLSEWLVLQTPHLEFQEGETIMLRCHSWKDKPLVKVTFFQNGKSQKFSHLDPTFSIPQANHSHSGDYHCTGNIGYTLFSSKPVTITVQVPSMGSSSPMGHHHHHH

| Binder | He/Con 2aH |
| --- | --- |
| B1 | 126 % of control |
| B2 | 74.6 % of control |
| B3 | 64.2 % of control |
| B4 | 94.9 % of control |
| B5 | 57.8 % of control |
| B6 | 87.7 % of control |
| B7 | 79.5 % of control |
| B8 | 77.1 % of control |
| B9 | 99.8 % of control |
| B10 | 131 % of control |
| B11 | 96.3 % of control |
| B12 | 88.4 % of control |
| B13 | 84.7 % of control |
| B14 | 73.5 % of control |
| B15 | 123 % of control |
| B16 | 80 % of control |
| B17 | 77.6 % of control |
| B18 | 73.5 % of control |
| B19 | 135 % of control |
| B20 | 81.8 % of control |
| B21 | 84.3 % of control |
| B22 | 99.5 % of control |
| B23 | 123 % of control |
| B24 | 85.4 % of control |
| B25 | 54.5 % of control |

These binders were tested against T3, FcγRIIa(R) extracellular domain, His-tagged (human, UniProt P12318 34-217) (assay: SPR, vs GpH7-A5/GpH7-B3/GpL16-k0 =100).
T3 construct: extracellular domain; also called 2aR
T3 sequence: T2 sequence with H134R

| Binder | He/Con 2aR |
| --- | --- |
| B1 | 125 % of control |
| B2 | 142 % of control |
| B3 | 74.6 % of control |
| B4 | 83.4 % of control |
| B5 | 147 % of control |
| B6 | 87.3 % of control |
| B7 | 70.6 % of control |
| B8 | 75.2 % of control |
| B9 | 110 % of control |
| B10 | 152 % of control |
| B11 | 106 % of control |
| B12 | 93.9 % of control |
| B13 | 140 % of control |
| B14 | 75.9 % of control |
| B15 | 132 % of control |
| B16 | 98.7 % of control |
| B17 | 86.6 % of control |
| B18 | 77.3 % of control |
| B19 | 150 % of control |
| B20 | 132 % of control |
| B21 | 117 % of control |
| B22 | 102 % of control |
| B23 | 143 % of control |
| B24 | 85.8 % of control |
| B25 | 97.8 % of control |

Each binder was assayed against T4, FcγRIIb extracellular domain, His-tagged (human, UniProt P31994 43-217) (assay: SPR, vs GpH7-A5/GpH7-B3/GpL16-k0 =100).
T4 construct: extracellular domain; also called 2b
T4 sequence: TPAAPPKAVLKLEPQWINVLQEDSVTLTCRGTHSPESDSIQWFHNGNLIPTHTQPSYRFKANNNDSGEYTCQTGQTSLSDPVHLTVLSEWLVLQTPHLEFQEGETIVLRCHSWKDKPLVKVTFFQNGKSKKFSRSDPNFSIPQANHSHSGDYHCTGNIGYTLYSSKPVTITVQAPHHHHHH

| Binder | He/Con 2b |
| --- | --- |
| B1 | 131 % of control |
| B2 | 235 % of control |
| B3 | 62.4 % of control |
| B4 | 75.8 % of control |
| B5 | 221 % of control |
| B6 | 87 % of control |
| B7 | 53.4 % of control |
| B8 | 66.7 % of control |
| B9 | 87.8 % of control |
| B10 | 168 % of control |
| B11 | 92.4 % of control |
| B12 | 98.7 % of control |
| B13 | 224 % of control |
| B14 | 55 % of control |
| B15 | 135 % of control |
| B16 | 90.8 % of control |
| B17 | 72 % of control |
| B18 | 62.7 % of control |
| B19 | 170 % of control |
| B20 | 207 % of control |
| B21 | 121 % of control |
| B22 | 100 % of control |
| B23 | 217 % of control |
| B24 | 83.8 % of control |
| B25 | 112 % of control |

The binders below were run against T5, FcγRIIIa extracellular domain, His-tagged (human, UniProt P08637 17-208) (assay: SPR, vs GpH7-A5/GpH7-B3/GpL16-k0 =100).
T5 construct: extracellular domain; also called 3a
T5 sequence (P08637 other isoform, or with tags, fused parts or gaps): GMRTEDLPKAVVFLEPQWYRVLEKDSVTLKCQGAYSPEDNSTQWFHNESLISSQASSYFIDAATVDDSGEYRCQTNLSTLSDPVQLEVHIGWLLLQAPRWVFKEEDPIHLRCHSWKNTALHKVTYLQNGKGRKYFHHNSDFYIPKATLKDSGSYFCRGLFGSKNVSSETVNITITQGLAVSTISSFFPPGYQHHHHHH

| Binder | He/Con 3a |
| --- | --- |
| B1 | 103 % of control |
| B2 | 98.9 % of control |
| B3 | 68.6 % of control |
| B4 | 94.6 % of control |
| B5 | 61 % of control |
| B6 | 74 % of control |
| B7 | 73.2 % of control |
| B8 | 65.6 % of control |
| B9 | 57.1 % of control |
| B10 | 73.8 % of control |
| B11 | 75.6 % of control |
| B12 | 83.7 % of control |
| B13 | 100 % of control |
| B14 | 67.2 % of control |
| B15 | 76.4 % of control |
| B16 | 85.6 % of control |
| B17 | 72 % of control |
| B18 | 65 % of control |
| B19 | 77.8 % of control |
| B20 | 71.3 % of control |
| B21 | 88.5 % of control |
| B22 | 92.8 % of control |
| B23 | 119 % of control |
| B24 | 73.5 % of control |
| B25 | 52.7 % of control |
